Measurements from publication PMC2700067.
Like-named read-outs stand apart in the source and are kept apart here.

Tests used:
Gag-CY (HIV-1) [1] = assay: split reporter (BiFC, NanoBiT); BiFC quantified by flow cytometry: 293T cells co-transfected with 0.25 μg of each BiFC construct and mRFP1, harvested about 14 h after transfection and fixed; percent of mRFP+ cells that are YFP+, and mean intensity of YFP+ cells
Gag-CY (HIV-1) [2] = assay: as above; remark: listed apart in the source

Gag-NY (natural protein) gave a percent of mRFP+ cells that are YFP+ (BiFC) (Gag-CY (HIV-1) [1]) of 3.3% and a percent of mRFP+ cells that are YFP+ (BiFC) (Gag-CY (HIV-1) [2]) of 3.5%.
